Test results: publication PMC3207290 (The Journal of Cell Biology, 2011)

Target: F-actin (polymerized rabbit muscle G-actin) (rabbit, UniProt P68135 1-377)
Assay: co-sedimentation

- Kd: 809 ± 245 nM
B1: bovine GRK5-Flag (enzyme)
chain: MELENIVANTVLLKAREGGGGKRKGKSKKWKEILKFPHINQCEDLRRTIDRDYCSLCDKQPVGRLLFRQFCETRPGLESYIQFLDSVAEYEVTPDEKLGEKGKEIMTKYLTPKSPVFITQVGRDLVSQTEEKLLQKPCKELFSACVQSVHDYLRGEPFHEYLDSMYFDRFLQWKWLERQPVTKNTFRQYRVLGKGGFGEVCACQVRATGKMYACKRLEKKRIKKRKGESMALNEKQILEKVNSRFVVNLAYAYETKDALCLVLTIMNGGDLKFHIYNMGNPGFEEERALFYAAEILCGLEDLHHENIVYRDLKPENILLDDYGHIRISDLGLAVKIPEGDLIRGRVGTVGYMAPEVLNNQRYGLSPDYWGLGCLIYEMIEGQSPFRGRKEKVKREEVDRRVLETEEVYSHKFSEEAKSICKMLLTKDAKQRLGCQEEGAAEVKRHPFFRNMNFKRLEAGMLDPPFVPDPRAVYCKDVLDIEQFSTVKGVNLDHTDDDFYSKFSTGSVPIPWQSEMIETECFKELNVFGPHGTLSPDLNRSHPPEPPKKGLLQRLFKRQHQNNSKSSPNSKTSFNHHINSNHVSSNSTGSS
